Measured values from US20190169240, “DNA-BINDING PROTEIN USING PPR MOTIF, AND USE THEREOF” (KYUSHU UNIVERSITY, NAT'L UNIVERSITY CORPORATION, published 2019).

Key:
Details in all cases: tags: N-terminal Flag and nuclear localization signal, C-terminal VP64
[1] = molecular target: T1, GUN1-VP64 (PPR motif region) (Arabidopsis thaliana, UniProt Q9SIC9 SEQ:234-621); test: cell_activity; 4x target reporter; HEK293T, Fluc/Rluc vs pminCMV-luc2
T1 chain: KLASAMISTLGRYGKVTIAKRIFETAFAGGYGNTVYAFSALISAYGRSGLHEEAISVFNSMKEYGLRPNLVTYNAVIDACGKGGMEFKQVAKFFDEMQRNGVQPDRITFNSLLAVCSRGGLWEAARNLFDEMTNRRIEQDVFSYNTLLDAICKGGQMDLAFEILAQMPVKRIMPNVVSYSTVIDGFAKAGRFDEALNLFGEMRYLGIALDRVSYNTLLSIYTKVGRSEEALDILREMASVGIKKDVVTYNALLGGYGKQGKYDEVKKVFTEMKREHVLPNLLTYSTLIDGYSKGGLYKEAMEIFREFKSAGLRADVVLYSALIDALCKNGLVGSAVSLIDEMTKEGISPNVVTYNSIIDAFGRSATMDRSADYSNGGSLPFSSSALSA
Protocol: (§1) A reporter vector (pminCMV-luc2, SEQ ID NO: 10) was prepared, in which the firefly luciferase gene was ligated downstream from the Minimal CMV promoter, and a multi-cloning site was placed upstream of the promoter. The predicted target sequence of each PPR was inserted into the vector at the multi-cloning site. The target sequence of each PPR ([…] for p63, […] for pTac2, and […] for GUN1, SEQ ID NOS: 11 to 13 in Sequence Listing) was determined by predicting the motif-DNA recognition codes of DNA-binding type PPR from the motif-RNA recognition codes observed in the RNA-binding type PPR. For each PPR, sequences containing 4 or 8 of target sequences were prepared, and used in the following assay. The nucleotide sequences of the vectors are shown as SEQ ID NOS: 14 to 19 in Sequence Listing. […]
(§2) The luciferase activity was compared for the cases of introducing pTac2-VP64 or GUN1-VP64 together with pminCMV-luc2 for a negative control, or the reporter vector having 4 or 8 target sequences (table mentioned below, FIG. 6). The comparison of the activity was performed on the basis of standardized scores obtained by dividing the measured values obtained with Fluc (firefly luciferase) with the measured value obtained with Rluc (Renilla luciferase) as the reference (Fluc/Rluc).

[2] = molecular target: T1, GUN1-VP64 (PPR motif region); test: cell_activity; 8x target reporter; HEK293T, Fluc/Rluc vs pminCMV-luc2
Protocol: as §1, §2

[3] = molecular target: T2, pTac2-VP64 (PPR motif region) (Arabidopsis thaliana, UniProt Q9S7Q2 SEQ:106-632); test: as above
T2 chain: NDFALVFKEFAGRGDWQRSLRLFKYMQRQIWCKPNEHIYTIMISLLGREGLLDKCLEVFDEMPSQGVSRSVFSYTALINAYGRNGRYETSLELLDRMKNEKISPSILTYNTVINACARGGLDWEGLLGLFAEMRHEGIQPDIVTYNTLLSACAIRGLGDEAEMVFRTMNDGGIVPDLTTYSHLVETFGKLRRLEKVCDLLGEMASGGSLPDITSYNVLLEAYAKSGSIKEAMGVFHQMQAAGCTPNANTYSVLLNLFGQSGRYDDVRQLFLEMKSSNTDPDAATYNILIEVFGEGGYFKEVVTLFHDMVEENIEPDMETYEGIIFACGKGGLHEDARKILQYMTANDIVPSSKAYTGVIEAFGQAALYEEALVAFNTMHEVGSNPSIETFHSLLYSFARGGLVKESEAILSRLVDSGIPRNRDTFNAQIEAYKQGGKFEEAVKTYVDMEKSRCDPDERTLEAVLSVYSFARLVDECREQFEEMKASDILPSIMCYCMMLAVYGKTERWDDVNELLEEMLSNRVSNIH
Protocol: as §1, §2

B1: GUN1 predicted target (dsDNA)
DNA 1: AATTTGTCGAT
DNA 2: ATCGACAAATT
**Q.** How did the activity [1] turn out when B1 was run?
**A.** The activity was 2.88 fold activation.

**Q.** And the activity [2]?
**A.** Its activity is 3.15 fold activation.

B2: pTac2 predicted target (dsDNA)
DNA 1: AACTTTCGTCACTCA
DNA 2: TGAGTGACGAAAGTT
**Q.** For B2, which activity [3] is on record?
**A.** The activity was 4.89 fold activation.
